From the domain aggregation screens of Martell et al. (2025) come the findings set out here.

This data set can be described thus: soluble fraction after stress (log2 fold change); higher = more stays soluble; pooled small domains, quantitative proteomics. As to conditions: stress: 50 degC. The essentials:
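Pooled custom libraries of small protein domains were measured in a high-throughput format, with quantitative proteomics as the read-out. Each library was stressed at 50°C. Aggregation propensity is given as the base-two logarithm of the fold change in how much of each protein stays soluble after the stress. Higher values mean a larger share of the protein remains in solution.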
For the sequence “HMKAKTYTVQYIDEGKIIKEEELEEGSIINAPEVTKEGHTFIGWYEGEEKYDVYEPITRNLILESKNEIN”, the “soluble fraction (log2)” value is -0.137.

Regarding “HMGTESFGARIRKIREARDWTPAALAEATGQTPEFVARVERDEVAPPVAFLLRLAAALGVDPSTF”, the “soluble fraction (log2)” value is -0.123.

In the case of “HMSEPQYKVLFSNLDDRDGGAIVTALGAMNVPYKYNDTGTALLVPADRVYDARLQLASQGLPRG”, the “soluble fraction (log2)” value is 0.18.

As to “HMVYLPGEEIPLKIIQEGKESGQGVGYLEDGTMVVVENGRRYLNQEVLVQVTKILQTNAGRLIFAVP”, the “soluble fraction (log2)” value was -0.346.

Consider “HMKPGYVIQVNGTVTKIQSGLVYVKTPAAQYTLMRKYAPADAAVGDRVSLWINEEGMVIDVHGK”, for which the “soluble fraction (log2)” value was -0.0092.

On to “HMKEYPEVITTSRLNVRTGPGTGYQRLGTLDQNLRVLVLTRQQGWAQIRGMLNGETVIGWVNDYYLQAID”, for which the “soluble fraction (log2)” value was -0.319.

On to “HMHKLTIEEALNYKTPANAGGPYSGKPFRDIYDQRGKAAVISFAKYYLSKATPEDPMVEVYRTLLDGAMEL”, for which the “soluble fraction (log2)” value is -0.875.
